Positions count from the first letter of the chain named.
Key:
Experiment in all cases: cell-based or functional assay
[1] = target: Env of HIV-1 strain R1166.c1 (HIV-1)
[2] = target: Env of HIV-1 strain 3415.v1.c1 (HIV-1)
[3] = target: Env of HIV-1 strain REJO4541.67 (HIV-1)
[4] = target: Env of HIV-1 strain YU2.DG (HIV-1)
[5] = target: Env of HIV-1 strain 231965.c1 (HIV-1)
[6] = target: Env of HIV-1 strain 251-18 (HIV-1)
[7] = target: Env of HIV-1 strain 3016.v5.c45 (HIV-1)
[8] = target: Env of HIV-1 strain ZM109F.PB4 (HIV-1)
[9] = target: Env of HIV-1 strain 3365.v2.c20 (HIV-1)
[10] = target: Env of HIV-1 strain H086.8 (HIV-1)
[11] = target: Env of HIV-1 strain PVO.4 (HIV-1)
[12] = target: Env of HIV-1 strain 250-4 (HIV-1)
[13] = target: Env of HIV-1 strain ZM53M.PB12 (HIV-1)
Tier 2 15 virus panel = target: Tier 2 15 virus panel
[14] = target: Env of HIV-1 strain X1254_c3 (HIV-1)
Env of MuLV = target: Env of MuLV
[15] = target: Env of HIV-1 strain Du172.17 (HIV-1)

B1: γ52κ5 (antibody, V domains shown)
VH: QIHLVQSGTEVKKPGSSVTVSCKAYGVNTFGLYAVNWVRQAPGQSLEYIGQIWRWKSSASHHFRGRVLISAVDLTGSSPPISSLEIKNLTSDDTAVYFCTTTSTYDRWSGLHHDGVMAFSSWGQGTLISVSA
VL: DIQMTQSPSTLSASTGDTVRISCRASQSITGNWVAWYQQRPGKAPRLLIYRGAALLGGVPSRFRGSAAGTDFTLTIGNLQAEDFGTFYCQQYDTYPGTFGQGTKVEVKR
- neutralization IC50 [1]: 0.319 µg/mL
- neutralization IC50 [2]: 0.12 µg/mL
- neutralization IC50 [3]: 0.035 µg/mL
- neutralization IC50 [4]: 0.065 µg/mL
- neutralization IC50 [5]: 0.094 µg/mL
- neutralization IC50 [6]: 0.048 µg/mL
- neutralization IC50 [7]: 0.017 µg/mL
- neutralization IC50 [8]: > 15 µg/mL
- neutralization IC50 [9]: > 15 µg/mL
- neutralization IC50 [10]: 0.175 µg/mL
- neutralization IC50 [11]: 0.019 µg/mL
- neutralization IC50 [12]: > 15 µg/mL
- neutralization IC50 [13]: 3.13 µg/mL
- mean neutralization IC50 (Tier 2 15 virus panel): 0.45 µg/mL
- potency against 8ANC195 (Tier 2 15 virus panel): 5 fold
- neutralization IC50 [14]: 0.504 µg/mL

B2: 8ANC195 IgG (antibody, V domains shown)
VH: B1 VH with R107K
VL: DIQMTQSPSTLSASIGDTVRISCRASQSITGNWVAWYQQRPGKAPRLLIYRGAALLGGVPSRFSGSAAGTDFTLTIGNLQAEDFGTFYCQQYDTYPGTFGQGTKVEV
- neutralization IC50 [1]: 0.986 µg/mL
- neutralization IC50 [2]: 2.4 µg/mL
- neutralization IC50 [3]: 0.08 µg/mL
- neutralization IC50 [4]: 0.79 µg/mL
- neutralization IC50 [5]: 0.514 µg/mL
- neutralization IC50 [6]: 0.284 µg/mL
- neutralization IC50 (Env of MuLV): > 23 µg/mL
- neutralization IC50 [7]: 0.195 µg/mL
- neutralization IC50 [8]: > 30 µg/mL
- neutralization IC50 [9]: > 30 µg/mL
- neutralization IC50 [10]: 0.095 µg/mL
- neutralization IC50 [15]: 10.8 µg/mL
- neutralization IC50 [11]: 0.52 µg/mL
- neutralization IC50 [12]: > 50 µg/mL
- neutralization IC50 [13]: 9.63 µg/mL
- mean neutralization IC50 (Tier 2 15 virus panel): 2.3 µg/mL
- neutralization IC50 [14]: 1.52 µg/mL

B3: γ59κ61 (antibody, V domains shown)
VH: B1 VH with S45G, L89V, R107E, G110D
VL: B1 VL with T15I, Q38H, R64S
- neutralization IC50 [1]: 7.46 µg/mL
- neutralization IC50 [2]: > 15 µg/mL
- neutralization IC50 [3]: 1.33 µg/mL
- neutralization IC50 [4]: 4.33 µg/mL
- neutralization IC50 [5]: > 15 µg/mL
- neutralization IC50 [6]: 1.4 µg/mL
- neutralization IC50 (Env of MuLV): > 15 µg/mL
- neutralization IC50 [7]: > 15 µg/mL
- neutralization IC50 [8]: > 15 µg/mL
- neutralization IC50 [9]: > 15 µg/mL
- neutralization IC50 [10]: > 15 µg/mL
- neutralization IC50 [15]: > 15 µg/mL
- neutralization IC50 [11]: > 15 µg/mL
- neutralization IC50 [12]: > 15 µg/mL
- neutralization IC50 [13]: 13.3 µg/mL
- neutralization IC50 [14]: 4.01 µg/mL

Reference: patent US20180171001A1
